Assay results taken from patent US10293026B2, “Agent for preventing or treating demyelinating disease” (Osaka University, priority 2014, dated 2019).

Experiments:
[1] = test system: oligodendrocyte precursor cells; test: BrdU uptake by oligodendrocyte precursor cells with recombinant FGFs (Example 3); type: cell-based, C57BL/6j mice; conditions: FGF at 10, 30 or 100 ng/ml, vs saline control; FIG. 3
Procedure: Recombinant FGF15 (Abcam), FGF21 (R&D), or FGF23 (R&D) was diluted in saline solution immediately before use to prepare an each FGF-containing solution. Oligodendrocyte precursor cells were harvested from C57BL/6j mice (postnatal day 1-old) brains, as in Example 1.
(§1) Initially, the oligodendrocyte precursor cells were seeded in a poly-L-lysinde (Sigma)-coated plastic tissue culture dish, and cultured in the following medium for 1 day (37° C., 5% CO2). The medium used was DMEM containing 4 mM L-gludamine (Sigma), 1 mM sodium pyruvate (Sigma), 0.1% bovine serum albumin (Sigma), 50 μg/ml apo-Transferrin (Sigma), 5 μg/ml insulin (Sigma), 30 nM sodium selenite (Sigma), 10 nM biotin (Sigma), 10 nM hydrocortisone (Sigma), 10 ng/ml Platelet-Derived Growth Factor-AA (Peprotech), and 10 ng/ml basic fibroblast growth factor (Peprotech). Thereafter, each type of FGF-containing solution was added to the culture medium of oligodendrocyte precursor cells such that the concentration of each type of FGF was 10 ng/ml, 30 ng/ml, or 100 ng/ml, and the cells were cultured at 37° C. for 24 hours. BrdU was subsequently added and cultured at 37° C. for 24 hours, and then the cells were collected; the BrdU uptake was then detected using the cell proliferation ELISA, BrdU colorimetric kit (Roche). As a control, an equivalent amount of saline solution was used instead of the FGF21-containing solution, and the BrdU uptake was measured under the same conditions as those described above. This experiment studied three cases for each group.

[2] = test system: myelin sheath in demyelination model mice; test: MBP positive regions in spinal cord of demyelination model mice (Example 6); type: in vivo, C57BL/6j mice; conditions: subcutaneous 500 ng/kg per day for 2 weeks from 7 days after lysophosphatidylcholine, one mouse per group, FIG. 6
Procedure: Demyelination model mice were created as in Example 5 above. An FGF21-containing solution prepared by diluting recombinant FGF21 (R&D) in saline solution was subcutaneously administered for 2 weeks at a dose of 500 ng/kg body weight of FGF21 per day, to the demyelination model mice after 7 days from the administration of lysophosphatidylcholine. After 2 weeks, the demyelination model mice were anesthetized and transcardially perfused with saline solution, and spinal cord tissue was harvested. Sections were prepared from the harvested spinal cord tissue as in Example 5 above and then immunostained using an anti-MBP antibody, and MBP positive regions in the sections were counted. As a control, a saline solution containing 0.5% BSA was used, and MBP positive regions were counted under the same conditions as those described above. This experiment conducted the study using one mouse for each group.

demyelination model mice = test: Ladder walk test of hindlimb motor function in demyelination model mice (Example 7); type: in vivo, C57BL/6j mice; conditions: FGF21 administered as in Example 5, FIG. 7
Procedure: Demyelination model mice were created, and recombinant FGF21 was administered, as in Example 5 above. The hindlimb motor function of the mice was examined by performing the ladder walk test. A 1-m long ladder was installed in a position at a height of 15 cm. The mice were allowed to walk on the ladder with random widths of 0.6, 1.2, and 1.8 cm. The number of missed steps was counted, and the proportion (%) of the number of missed steps relative to the total number of steps was calculated. This experiment conducted the study using three mice for each group.

[3] = test system: human oligodendrocyte precursor cells; test: BrdU uptake by human oligodendrocyte precursor cells (Example 8); type: cell-based; parameters: dose or concentration left out as unconfirmed; conditions: recombinant human FGF21, human cells, vs saline control; significant difference; FIG. 8
Procedure: Recombinant human FGF21 (R&D) was diluted in saline solution immediately before use to prepare an FGF21-containing solution. Human oligodendrocyte precursor cells (ScienCell) were also prepared.
as §1, with “poly-L-lysinde-coated” for “poly-L-lysinde (Sigma)-coated”, “dish (Greiner Bio-One),” for “dish,”, “(Peprotech),” for “(Peprotech), and”, “(Peprotech) 1 (v/v) %,” for “(Peprotech). Thereafter, each type of FGF-containing solution was added to the culture medium of oligodendrocyte precursor cells such that the concentration of each type of FGF was 10 ng/ml, 30 ng/ml, or 100 ng/ml,”, “penicillin/streptomycin (Life Technologies). […]” for “the cells were cultured at 37° C. for 24 hours.”, “This experiment studied three cases for each group.” left out

[4] = test system: oligodendrocyte precursor cells in brain contusion model mice; test: PDGFRα and Ki67 double-positive cells in brain tissue of brain contusion model mice (Example 9); type: in vivo, C57BL/6j mice; conditions: continuous intraventricular administration 50 ng/kg body weight per day for 1 week, vs vehicle, FIG. 9
Procedure: Anesthetized C57BL/6j mice (female, 7-week-old) were fixed onto a brain stereotaxic apparatus (Narishige). A midline incision was made in the scalp, the fascia was removed, and the skull was exposed. A craniotomy was performed through a 4-mm diameter circle centered at 2 mm lateral to the bregma. A 3-mm diameter chip was connected to the Pneumatic Impact Device (AmScien Instruments) to create a brain contusion. The parameters for imparting impact were as follows: speed: […], depth: 1 mm, and duration: 120 msec.
Osmotic pumps (ALZET) were filled with an FGF21-containing solution prepared by diluting recombinant FGF21 (R&D) in saline solution. A cannula was attached to the tip of each osmotic pump, and the cannula tip was further connected to a Brain infusion kit (ALZET) to continuously administer the FGF21-containing solution into the ventricles. The FGF21-containing solution was administered for 1 week at a dose of 50 ng/kg body weight of FGF21 per day. […] The sections were immunostained using an anti-PDGFRα antibody and an anti-Ki67 antibody, and the number of PDGFRα and Ki67 double-positive cells in the sections was counted. As a control, a saline solution containing 0.5% BSA (Vehicle) was used, and the number of PDGFRα and Ki67 double-positive cells was counted under the same conditions as those described above. […]

B1: FGF21: Recombinant fibroblast growth factor 21 (R&D); the claimed active ingredient promoting oligodendrocyte precursor cell proliferation (protein, listed as Homo sapiens)
chain: MDSDETGFEHSGLWVSVLAGLLLGACQAHPIPDSSPLLQFGGQVRQRYLYTDDAQQTEAHLEIREDGTVGGAADQSPESLLQLKALKPGVIQILGVKTSRFLCQRPDGALYGSLHFDPEACSFRELLLEDGYNVYQSEAHGLPLHLPGNKSPHRDPAPRGPARFLPLPGLPPALPEPPGILAPQPPDVGSSDPLSMVGPSQGRSPSYAS
BrdU uptake by the oligodendrocyte precursor cells [1]: markedly increased | MBP positive regions [2]: increased | number of missed steps on the ladder (demyelination model mice): decreased | BrdU uptake by the oligodendrocyte precursor cells [3]: markedly increased | number of PDGFRα and Ki67 double-positive cells [4]: increased
